# Where a chain is given by its changes, count along the chain named.
# B1: v17427 (telisotuzumab paratope, HetFc, unmodified hinge, full-size IgG1 antibody) (antibody)
# heavy 1: QVQLVQSGAEVKKPGASVKVSCKASGYIFTAYTMHWVRQAPGQGLEWMGWIKPNNGLANYAQKFQGRVTMTRDTSISTAYMELSRLRSDDTAVYYCARSEITTEFDYWGQGTLVTVSSASTKGPSVFPLAPSSKSTSGGTAALGCLVKDYFPEPVTVSWNSGALTSGVHTFPAVLQSSGLYSLSSVVTVPSSSLGTQTYICNVNHKPSNTKVDKKVEPKSCDKTHTCPPCPAPELLGGPSVFLFPPKPKDTLMISRTPEVTCVVVDVSHEDPEVKFNWYVDGVEVHNAKTKPREEQYNSTYRVVSVLTVLHQDWLNGKEYKCKVSNKALPAPIEKTISKAKGQPREPQVYVYPPSRDELTKNQVSLTCLVKGFYPSDIAVEWESNGQPENNYKTTPPVLDSDGSFALVSKLTVDKSRWQQGNVFSCSVMHEALHNHYTQKSLSLSPG
# heavy 2: not shown
# light: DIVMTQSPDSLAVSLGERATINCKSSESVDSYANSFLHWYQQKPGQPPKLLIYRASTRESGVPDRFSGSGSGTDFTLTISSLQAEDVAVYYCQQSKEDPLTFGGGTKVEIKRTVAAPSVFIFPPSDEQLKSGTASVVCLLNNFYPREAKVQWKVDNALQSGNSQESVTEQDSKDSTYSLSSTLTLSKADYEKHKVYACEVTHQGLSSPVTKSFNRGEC
# notes: also called variant v17427; unconjugated HetFc variant
# B2: v17427-Drug-Linker 002 DAR 6 (antibody)
# heavy 1: B1 heavy 1
# heavy 2: not shown
# light: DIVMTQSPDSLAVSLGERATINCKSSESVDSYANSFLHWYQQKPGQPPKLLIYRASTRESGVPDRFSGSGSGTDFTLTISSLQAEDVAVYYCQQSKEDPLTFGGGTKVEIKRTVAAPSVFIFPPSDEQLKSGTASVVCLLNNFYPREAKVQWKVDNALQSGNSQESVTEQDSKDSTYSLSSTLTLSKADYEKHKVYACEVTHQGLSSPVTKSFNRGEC
# modifications: Drug-Linker 002 stochastically conjugated to lysine residues of the antibody, about DAR 6; Drug-Linker 002 (auristatin analogue Compound 1) stochastically conjugated to lysine residues of the antibody, about DAR 6
# notes: Antibody-drug conjugate of v17427
# B3: v17427-Drug-Linker 002 DAR 4 (antibody)
# heavy 1: B1 heavy 1
# heavy 2: not shown
# light: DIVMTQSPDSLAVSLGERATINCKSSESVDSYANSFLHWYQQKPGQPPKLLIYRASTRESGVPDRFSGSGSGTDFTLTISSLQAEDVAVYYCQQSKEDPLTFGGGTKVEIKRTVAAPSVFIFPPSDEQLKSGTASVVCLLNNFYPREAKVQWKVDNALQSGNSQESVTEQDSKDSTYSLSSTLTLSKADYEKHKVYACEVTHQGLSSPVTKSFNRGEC
# modifications: Drug-Linker 002 stochastically conjugated to lysine residues of the antibody, about DAR 4; Drug-Linker 002 (auristatin analogue Compound 1) stochastically conjugated to lysine residues of the antibody, about DAR 4
# notes: as for B2
# B4: v32634 (telisotuzumab paratope, HomoFc, unmodified hinge, full-size IgG1 antibody) (antibody, V domains shown)
# VH: QVQLVQSGAEVKKPGASVKVSCKASGYIFTAYTMHWVRQAPGQGLEWMGWIKPNNGLANYAQKFQGRVTMTRDTSISTAYMELSRLRSDDTAVYYCARSEITTEFDYWGQGTLVTVSS
# VL: DIVMTQSPDSLAVSLGERATINCKSSESVDSYANSFLHWYQQKPGQPPKLLIYRASTRESGVPDRFSGSGSGTDFTLTISSLQAEDVAVYYCQQSKEDPLTFGGGTKVEIKR
# notes: also called variant v32634; unconjugated HomoFc variant
# B5: v29001 (telisotuzumab paratope, HetFc, unmodified hinge, two cysteine insertions between T299 and Y300) (antibody, human IgG1, kappa)
# heavy 1: QVQLVQSGAEVKKPGASVKVSCKASGYIFTAYTMHWVRQAPGQGLEWMGWIKPNNGLANYAQKFQGRVTMTRDTSISTAYMELSRLRSDDTAVYYCARSEITTEFDYWGQGTLVTVSSASTKGPSVFPLAPSSKSTSGGTAALGCLVKDYFPEPVTVSWNSGALTSGVHTFPAVLQSSGLYSLSSVVTVPSSSLGTQTYICNVNHKPSNTKVDKKVEPKSCDKTHTCPPCPAPELLGGPSVFLFPPKPKDTLMISRTPEVTCVVVDVSHEDPEVKFNWYVDGVEVHNAKTKPREEQYNSTCYRVVSVLTVLHQDWLNGKEYKCKVSNKALPAPIEKTISKAKGQPREPQVYVYPPSRDELTKNQVSLTCLVKGFYPSDIAVEWESNGQPENNYKTTPPVLDSDGSFALVSKLTVDKSRWQQGNVFSCSVMHEALHNHYTQKSLSLSPG
# heavy 2: B5 heavy 1 with Y353L, T368L, K394L, T396W, A407F, V409Y
# light: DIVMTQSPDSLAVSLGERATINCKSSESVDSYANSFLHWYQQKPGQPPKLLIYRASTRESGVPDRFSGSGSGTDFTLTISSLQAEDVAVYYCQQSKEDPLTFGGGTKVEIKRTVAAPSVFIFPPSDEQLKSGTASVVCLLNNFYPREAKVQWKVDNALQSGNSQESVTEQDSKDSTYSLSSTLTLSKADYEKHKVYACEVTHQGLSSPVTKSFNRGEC
# notes: also called variant v29001; cysteine insertion variant v29001
# B6: v29001-Drug-Linker 004 DAR 6 (antibody, human IgG1, kappa)
# heavy 1: B5 heavy 1
# heavy 2: B5 heavy 1 with Y353L, T368L, K394L, T396W, A407F, V409Y
# light: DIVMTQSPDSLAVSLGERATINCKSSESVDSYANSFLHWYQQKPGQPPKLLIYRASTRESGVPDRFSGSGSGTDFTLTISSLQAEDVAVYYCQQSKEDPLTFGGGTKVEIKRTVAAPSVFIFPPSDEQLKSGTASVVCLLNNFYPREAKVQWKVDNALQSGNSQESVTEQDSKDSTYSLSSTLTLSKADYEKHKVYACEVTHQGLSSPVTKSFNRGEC
# modifications: trivalent Drug-Linker 004 on the cysteine inserted between T299 and Y300 (EU); trivalent Drug-Linker 004 (three Compound 1) on the cysteine inserted between T299 and Y300 (EU)
# notes: Site-specific cysteine-conjugated antibody-drug conjugate of v29001
# B7: v29001-Drug-Linker 001 DAR 2 (antibody, human IgG1, kappa)
# heavy 1: B5 heavy 1
# heavy 2: B5 heavy 1 with Y353L, T368L, K394L, T396W, A407F, V409Y
# light: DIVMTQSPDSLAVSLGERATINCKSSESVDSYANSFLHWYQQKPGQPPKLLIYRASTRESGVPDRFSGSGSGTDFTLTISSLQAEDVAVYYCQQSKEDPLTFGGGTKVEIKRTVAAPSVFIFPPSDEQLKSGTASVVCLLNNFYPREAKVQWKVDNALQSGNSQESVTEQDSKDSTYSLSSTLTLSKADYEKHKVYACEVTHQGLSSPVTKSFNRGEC
# modifications: Drug-Linker 001 on the cysteine inserted between T299 and Y300 (EU); Drug-Linker 001 (auristatin analogue Compound 1) on the cysteine inserted between T299 and Y300 (EU)
# notes: as for B6
# B8: v29001-Drug-Linker 003 DAR 4 (antibody, human IgG1, kappa)
# heavy 1: B5 heavy 1
# heavy 2: B5 heavy 1 with Y353L, T368L, K394L, T396W, A407F, V409Y
# light: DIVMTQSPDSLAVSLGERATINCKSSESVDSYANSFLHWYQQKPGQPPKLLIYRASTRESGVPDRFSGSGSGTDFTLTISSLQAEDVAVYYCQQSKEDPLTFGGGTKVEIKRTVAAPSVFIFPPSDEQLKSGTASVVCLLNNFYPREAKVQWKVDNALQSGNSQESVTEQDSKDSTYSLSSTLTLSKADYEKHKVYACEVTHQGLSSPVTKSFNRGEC
# modifications: bivalent Drug-Linker 003 on the cysteine inserted between T299 and Y300 (EU); bivalent Drug-Linker 003 (two Compound 1) on the cysteine inserted between T299 and Y300 (EU)
# notes: as for B6
# B9: v32634-Drug-Linker 002 DAR4 (antibody, V domains shown)
# VH: B4 VH
# VL: B4 VL
# modifications: Drug-Linker 002 stochastically conjugated to lysine residues of the antibody, about DAR 4; Drug-Linker 002 (auristatin analogue Compound 1) stochastically conjugated to lysine residues of the antibody, about DAR 4
# notes: Antibody-drug conjugate of v32634
# B10: v32634-Drug-Linker 002 DAR6 (antibody, V domains shown)
# VH: B4 VH
# VL: B4 VL
# modifications: Drug-Linker 002 stochastically conjugated to lysine residues of the antibody, about DAR 6; Drug-Linker 002 (auristatin analogue Compound 1) stochastically conjugated to lysine residues of the antibody, about DAR 6
# notes: as for B9
# Target: T1, c-Met (hepatocyte growth factor receptor, HGFR), endogenous on tumour cell lines (UniProt P08581 25-1390, limits assumed)
# T1 construct: whole, on cells
# Test: apparent Kd, flow cytometry on H292 cells (endogenous cMet)
# Protocol: (§1) Briefly, cells were seeded at 50,000 cells/well in V-bottom 96-well plates and treated with antibody for 24 hours at 4° C. to prevent internalization. Following incubation, cells were washed and stained with anti-human IgG Fc AF647 conjugate (Jackson ImmunoResearch Laboratories, Inc., West Grove, PA; Cat. No. 109-605-098) at 4° C. for 30 min. Following incubation and washing, fluorescence was detected by flow cytometry on a BD LSRFortessa™ Cell Analyzer (BD Biosciences, Franklin Lake, NJ) with 1,000 minimum events collected per well. AF647/APC-A GeoMean (fluorescence signal geometric mean, proportional to anti-Human AF647 binding) in live cell population was plotted using GraphPad Prism Version 8 (GraphPad Software, San Diego, CA).
# T1 sequence (P08581 25-1390 limits assumed): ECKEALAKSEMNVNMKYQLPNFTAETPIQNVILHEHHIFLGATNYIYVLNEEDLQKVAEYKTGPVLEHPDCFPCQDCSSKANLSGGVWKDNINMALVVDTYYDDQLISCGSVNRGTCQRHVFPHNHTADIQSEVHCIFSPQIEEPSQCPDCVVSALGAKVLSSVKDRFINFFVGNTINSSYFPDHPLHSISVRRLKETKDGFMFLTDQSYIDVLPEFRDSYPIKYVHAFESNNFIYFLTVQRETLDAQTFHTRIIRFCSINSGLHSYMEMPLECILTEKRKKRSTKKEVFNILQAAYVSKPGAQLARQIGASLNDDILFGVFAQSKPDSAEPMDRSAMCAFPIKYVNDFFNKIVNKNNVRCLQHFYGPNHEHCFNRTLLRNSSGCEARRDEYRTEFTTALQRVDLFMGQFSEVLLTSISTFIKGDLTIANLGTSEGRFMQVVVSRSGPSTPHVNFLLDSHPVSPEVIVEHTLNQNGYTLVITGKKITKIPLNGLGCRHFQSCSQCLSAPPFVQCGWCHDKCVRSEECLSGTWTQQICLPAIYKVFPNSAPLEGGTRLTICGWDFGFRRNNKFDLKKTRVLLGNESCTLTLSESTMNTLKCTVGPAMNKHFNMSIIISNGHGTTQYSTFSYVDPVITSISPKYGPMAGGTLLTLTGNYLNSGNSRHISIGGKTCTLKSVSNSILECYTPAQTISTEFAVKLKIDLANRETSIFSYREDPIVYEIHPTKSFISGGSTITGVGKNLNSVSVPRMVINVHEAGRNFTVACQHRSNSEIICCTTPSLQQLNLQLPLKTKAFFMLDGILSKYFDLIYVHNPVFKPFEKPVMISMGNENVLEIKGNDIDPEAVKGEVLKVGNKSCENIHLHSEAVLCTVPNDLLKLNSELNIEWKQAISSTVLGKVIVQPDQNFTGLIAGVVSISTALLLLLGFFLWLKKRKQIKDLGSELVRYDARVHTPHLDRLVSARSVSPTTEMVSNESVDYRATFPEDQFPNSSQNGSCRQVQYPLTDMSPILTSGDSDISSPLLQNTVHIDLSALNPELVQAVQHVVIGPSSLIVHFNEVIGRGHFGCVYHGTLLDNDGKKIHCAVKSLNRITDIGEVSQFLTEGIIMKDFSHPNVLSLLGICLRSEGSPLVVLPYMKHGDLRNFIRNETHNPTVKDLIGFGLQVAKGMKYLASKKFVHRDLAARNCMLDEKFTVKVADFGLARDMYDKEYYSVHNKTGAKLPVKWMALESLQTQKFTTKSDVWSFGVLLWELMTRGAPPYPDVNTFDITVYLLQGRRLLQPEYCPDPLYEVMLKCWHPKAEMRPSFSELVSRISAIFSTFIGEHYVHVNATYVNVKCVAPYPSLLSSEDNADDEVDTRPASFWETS
row,Binder,Kd [nM]
1,B1,0.03
2,B2,0.05
3,B3,0.04
4,B4,0.02

# Target: T1, c-Met (hepatocyte growth factor …)
# Test: as above
# Remark: another data set of the same source
# Protocol: as §1
# (§2) Cellular binding was determined as described in Example 10.
row,Binder,Kd [nM]
1,B5,0.024
2,B6,0.028
3,B7,0.064
4,B8,0.03
5,B1,0.026
6,B2,0.047
7,B3,0.04

# Target: T1, c-Met (hepatocyte growth factor …)
# Test: apparent Kd, flow cytometry on SNU-5 cells (endogenous cMet)
# Protocol: as §1
row,Binder,Kd [nM]
1,B1,0.33
2,B2,0.43
3,B3,0.43
4,B4,0.59
5,B9,0.46
6,B10,0.71

# Target: T1, c-Met (hepatocyte growth factor …)
# Test: as above
# Remark: another data set of the same source
# Protocol: as §1, §2
row,Binder,Kd [nM]
1,B5,0.428
2,B6,0.615
3,B7,0.584
4,B8,1.13
5,B1,0.328
6,B2,0.435
7,B3,0.428

# Target: T1, c-Met (hepatocyte growth factor …)
# Test: flow cytometry on H292 cells (endogenous cMet), as in Example 10
# Protocol: as §1, §2
row,Binder,Bmax
1,B5,2040 AF647 GeoMean fluorescence
2,B6,2010 AF647 GeoMean fluorescence
3,B7,2070 AF647 GeoMean fluorescence
4,B8,2048 AF647 GeoMean fluorescence
5,B1,2120 AF647 GeoMean fluorescence
6,B2,2150 AF647 GeoMean fluorescence
7,B3,2120 AF647 GeoMean fluorescence

# Target: T1, c-Met (hepatocyte growth factor …)
# Test: flow cytometry on SNU-5 cells (endogenous cMet), as in Example 10
# Protocol: as §1, §2
row,Binder,Bmax
1,B5,32100 AF647 GeoMean fluorescence
2,B6,37700 AF647 GeoMean fluorescence
3,B7,35800 AF647 GeoMean fluorescence
4,B8,38600 AF647 GeoMean fluorescence
5,B1,34800 AF647 GeoMean fluorescence
6,B2,33500 AF647 GeoMean fluorescence
7,B3,34100 AF647 GeoMean fluorescence

# Target: T1, c-Met (hepatocyte growth factor …)
# Test: flow cytometry on H292 cells (endogenous cMet), 24 h at 4 C, anti-human IgG Fc AF647
# Protocol: as §1
row,Binder,Bmax
1,B1,2120 AF647 GeoMean fluorescence
2,B2,2150 AF647 GeoMean fluorescence
3,B3,2120 AF647 GeoMean fluorescence
4,B4,2240 AF647 GeoMean fluorescence
5,B9,2130 AF647 GeoMean fluorescence
6,B10,2200 AF647 GeoMean fluorescence

# Target: T1, c-Met (hepatocyte growth factor …)
# Test: flow cytometry on SNU-5 cells (endogenous cMet), 24 h at 4 C, anti-human IgG Fc AF647
# Protocol: as §1
row,Binder,Bmax
1,B1,34800 AF647 GeoMean fluorescence
2,B2,33500 AF647 GeoMean fluorescence
3,B3,34100 AF647 GeoMean fluorescence
4,B4,37200 AF647 GeoMean fluorescence
5,B9,33700 AF647 GeoMean fluorescence
6,B10,41100 AF647 GeoMean fluorescence

# From patent US20250222128A1 (Zymeworks, published 2025)
